The values below come from article doi:10.1101/2021.07.15.452465.

Some results are limits rather than exact numbers.

Assay [1] deals with A. nidulans CCAAT-binding complex, conserved core domains of HapB, HapC and HapE (HapB^231-293, HapC^42-132, HapE^47-164) (Aspergillus nidulans). The assay can be described thus: crystal structure.
For assay [2], the target named is A. nidulans HapX^36-133M carrying C92K and C129S point mutations (Aspergillus nidulans). The assay can be described thus: crystal structure.
For assay [3], the target named is A. nidulans CCAAT-binding complex, conserved core domains of HapB, HapC and HapE (HapB^231-293, HapC^42-132, HapE^47-164) (Aspergillus nidulans). The assay can be described thus: SEC. Background: Size exclusion chromatography separates by hydrodynamic size, large species first.
The target is the same in assay [4]. Nature of the assay: SPR. Background: Surface plasmon resonance follows binding to a sensor surface in real time, without labels.

Consider “A. nidulans HapX^36-133M carrying C92K and C129S point mutations (domain or fragment)”, for which the stoichiometry N (HapX subunits per CBC) in assay [1] is 2. The values for the stoichiometry N in assay [2] and in assay [3] were 2 and 2 HapX per CBC, respectively.
Take “A. nidulans HapX^36-141 (domain or fragment)”: the fold increase of binding against HapX^36-133 in assay [4] was less than 3.6 fold.

Usually stoichiometry N stands for a count of units in the complex or per binding partner.
